From the supplement of paper PMC5998384

Legend:
[1] = system: HeLa Kyoto; experiment: solubility in G1/S (NP-40 vs SDS abundance) (log2 ratio); higher = more soluble; conditions: cell cycle stage: G1/S
[2] = system: HeLa Kyoto; experiment: solubility change mitosis vs G1/S (difference of NP-40 vs SDS log2 ratios) (log2 ratio difference); higher = more soluble in mitosis
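For solubility change mitosis vs G1/S (difference of NP-40 vs SDS log2 ratios) in this document: synchronized HeLa Kyoto cells (double thymidine block for G1/S, nocodazole release for mitosis), protein amounts in NP-40 versus SDS lysates quantified by mass spectrometry, three biological replicates.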
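For solubility in G1/S (NP-40 vs SDS abundance) in this document: HeLa Kyoto cells arrested at G1/S by double thymidine block, proteins quantified by TMT10plex mass spectrometry in mild NP-40 versus SDS extracts, three biological replicates.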

Row | Sequence | solubility in G1/S (log2) [1] | solubility change mitosis (log2) [2]
1 | MVKLFIGNLPREATEQEIRSLFEQYGKVLECDIIKNYGFVHIEDKTAAEDAIRNLHHYKLHGVNINVEASKNKSKASTKLHVGNISPTCTNQELRAKFEEYGPVIECDIVKDYAFVHMERAEDAVEAIRGLDNTEFQGKRMHVQLSTSRLRTAPGMGDQSGCYRCGKEGHWSKECPVDRTGRVADFTEQYNEQYGAVRTPYTMGYGESMYYNDAYGALDYYKRYRVRSYEAVAAAAAASAYNYAEQTMSHLPQVQSTTVTSHLNSTSVDPYDRHLLPNSGAAATSAAMAAAAATTSSYYGRDRSPLRRAAAMLPTVGEGYGYGPESELSQASAATRNSLYDMARYEREQYVDRARYSAF [RBM4B] | 0.227 | -0.335
2 | MSCTIEKALADAKALVERLRDHDDAAESLIEQTTALNKRVEAMKQYQEEIQELNEVARHRPRSTLVMGIQQENRQIRELQQENKELRTSLEEHQSALELIMSKYREQMFRLLMASKKDDPGIIMKLKEQHSKIDMVHRNKSEGFFLDASRHILEAPQHGLERRHLEANQNELQAHVDQITEMAAVMRKAIEIDEQQGCKEQERIFQLEQENKGLREILQITRESFLNLRKDDASESTSLSALVTNSDLSLRKS [FGFR1OP2] | 0.209 | 0.0581
3 | MWYHRLSHLHSRLQDLLKGGVIYPALPQPNFKSLLPLAVHWHHTASKSLTCAWQQHEDHFELKYANTVMRFDYVWLRDHCRSASCYNSKTHQRSLDTASVDLCIKPKTIRLDETTLFFTWPDGHVTKYDLNWLVKNSYEGQKQKVIQPRILWNAEIYQQAQVPSVDCQSFLETNEGLKKFLQNFLLYGIAFVENVPPTQEHTEKLAERISLIRETIYGRMWYFTSDFSRGDTAYTKLALDRHTDTTYFQEPCGIQVFHCLKHEGTGGRTLLVDGFYAAEQVLQKAPEEFELLSKVPLKHEYIEDVGECHNHMIGIGPVLNIYPWNKELYLIRYNNYDRAVINTVPYDVVHRWYTAHRTLTIELRRPENEFWVKLKPGRVLFIDNWRVLHGRECFTGYRQLCGCYLTRDDVLNTARLLGLQA [TMLHE] | -0.167 | 0.114
4 | MPGEEEERAFLVAREELASALRRDSGQAFSLEQLRPLLASSLPLAARYLQLDAARLVRCNAHGEPRNYLNTLSTALNILEKYGRNLLSPQRPRYWRGVKFNNPVFRSTVDAVQGGRDVLRLYGYTEEQPDGLSFPEGQEEPDEHQVATVTLEVLLLRTELSLLLQNTHPRQQALEQLLEDKVEDDMLQLSEFDPLLREIAPGPLTTPSVPGSTPGPCFLCGSAPGTLHCPSCKQALCPACDHLFHGHPSRAHHLRQTLPGVLQGTHLSPSLPASAQPRPQSTSLLALGDSSLSSPNPASAHLPWHCAACAMLNEPWAVLCVACDRPRGCKGLGLGTEGPQGTGGLEPDLARGRWACQSCTFENEAAAVLCSICERPRLAQPPSLVVDSRDAGICLQPLQQGDALLASAQSQVWYCIHCTFCNSSPGWVCVMCNRTSSPIPAQHAPRPYASSLEKGPPKPGPPRRLSAPLPSSCGDPEKQRQDKMREEGLQLVSMIREGEAAGACPEEIFSALQYSGTEVPLQWLRSELPYVLEMVAELAGQQDPGLGAFSCQEARRAWLDRHGNLDEAVEECVRTRRRKVQELQSLGFGPEEGSLQALFQHGGDVSRALTELQRQRLEPFRQRLWDSGPEPTPSWDGPDKQSLVRRLLAVYALPSWGRAELALSLLQETPRNYELGDVVEAVRHSQDRAFLRRLLAQECAVCGWALPHNRMQALTSCECTICPDCFRQHFTIALKEKHITDMVCPACGRPDLTDDTQLLSYFSTLDIQLRESLEPDAYALFHKKLTEGVLMRDPKFLWCAQCSFGFIYEREQLEATCPQCHQTFCVRCKRQWEEQHRGRSCEDFQNWKRMNDPEYQAQGLAMYLQENGIDCPKCKFSYALARGGCMHFHCTQCRHQFCSGCYNAFYAKNKCPEPNCRVKKSLHGHHPRDCLFYLRDWTALRLQKLLQDNNVMFNTEPPAGARAVPGGGCRVIEQKEVPNGLRDEACGKETPAGYAGLCQAHYKEYLVSLINAHSLDPATLYEVEELETATERYLHVRPQPLAGEDPPAYQARLLQKLTEEVPLGQSIPRRRK [RNF31] | -0.0767 | -0.0502
5 | MIRDLSKMYPQTRHPAPHQPAQPFKFTISESCDRIKEEFQFLQAQYHSLKLECEKLASEKTEMQRHYVMYYEMSYGLNIEMHKQAEIVKRLNAICAQVIPFLSQEHQQQVVQAVERAKQVTMAELNAIIGQQLQAQHLSHGHGLPVPLTPHPSGLQPPAIPPIGSSAGLLALSSALGGQSHLPIKDEKKHHDNDHQRDRDSIKSSSVSPSASFRGAEKHRNSADYSSESKKQKTEEKEIAARYDSDGEKSDDNLVVDVSNEDPSSPRGSPAHSPRENGLDKTRLLKKDAPISPASIASSSSTPSSKSKELSLNEKSTTPVSKSNTPTPRTDAPTPGSNSTPGLRPVPGKPPGVDPLASSLRTPMAVPCPYPTPFGIVPHAGMNGELTSPGAAYAGLHNISPQMSAAAAAAAAAAAYGRSPVVGFDPHHHMRVPAIPPNLTGIPGGKPAYSFHVSADGQMQPVPFPPDALIGPGIPRHARQINTLNHGEVVCAVTISNPTRHVYTGGKGCVKVWDISHPGNKSPVSQLDCLNRDNYIRSCRLLPDGRTLIVGGEASTLSIWDLAAPTPRIKAELTSSAPACYALAISPDSKVCFSCCSDGNIAVWDLHNQTLVRQFQGHTDGASCIDISNDGTKLWTGGLDNTVRSWDLREGRQLQQHDFTSQIFSLGYCPTGEWLAVGMENSNVEVLHVTKPDKYQLHLHESCVLSLKFAHCGKWFVSTGKDNLLNAWRTPYGASIFQSKESSSVLSCDISVDDKYIVTGSGDKKATVYEVIY [TLE4] | -0.00686 | -0.13
6 | MWTADEIAQLCYEHYGIRLPKKGKPEPNHEWTLLAAVVKIQSPADKACDTPDKPVQVTKEVVSMGTGTKCIGQSKMRKNGDILNDSHAEVIARRSFQRYLLHQLQLAATLKEDSIFVPGTQKGVWKLRRDLIFVFFSSHTPCGDASIIPMLEFEDQPCCPVFRNWAHNSSVEASSNLEAPGNERKCEDPDSPVTKKMRLEPGTAAREVTNGAAHHQSFGKQKSGPISPGIHSCDLTVEGLATVTRIAPGSAKVIDVYRTGAKCVPGEAGDSGKPGAAFHQVGLLRVKPGRGDRTRSMSCSDKMARWNVLGCQGALLMHLLEEPIYLSAVVIGKCPYSQEAMQRALIGRCQNVSALPKGFGVQELKILQSDLLFEQSRSAVQAKRADSPGRLVPCGAAISWSAVPEQPLDVTANGFPQGTTKKTIGSLQARSQISKVELFRSFQKLLSRIARDKWPHSLRVQKLDTYQEYKEAASSYQEAWSTLRKQVFGSWIRNPPDYHQFK [ADAT1] | 0.316 | -0.0783
7 | MSYMLPHLHNGWQVDQAILSEEDRVVVIRFGHDWDPTCMKMDEVLYSIAEKVKNFAVIYLVDITEVPDFNKMYELYDPCTVMFFFRNKHIMIDLGTGNNNKINWAMEDKQEMVDIIETVYRGARKGRGLVVSPKDYSTKYRY [TXNL4A] | -0.625 | 0.224
8 | MSKKKGLSAEEKRTRMMEIFSETKDVFQLKDLEKIAPKEKGITAMSVKEVLQSLVDDGMVDCERIGTSNYYWAFPSKALHARKHKLEVLESQLSEGSQKHASLQKSIEKAKIGRCETEERTRLAKELSSLRDQREQLKAEVEKYKDCDPQVVEEIRQANKVAKEAANRWTDNIFAIKSWAKRKFGFEENKIDRTFGIPEDFDYID [MND1] | 0.61 | -0.05
9 | MAEGDAGSDQRQNEEIEAMAAIYGEEWCVIDDCAKIFCIRISDDIDDPKWTLCLQVMLPNEYPGTAPPIYQLNAPWLKGQERADLSNSLEEIYIQNIGESILYLWVEKIRDVLIQKSQMTEPGPDVKKKTEEEDVECEDDLILACQPESSLKALDFDISETRTEVEVEELPPIDHGIPITDRRSTFQAHLAPVVCPKQVKMVLSKLYENKKIASATHNIYAYRIYCEDKQTFLQDCEDDGETAAGGRLLHLMEILNVKNVMVVVSRWYGGILLGPDRFKHINNCARNILVEKNYTNSPEESSKALGKNKKVRKDKKRNEH [IMPACT] | 0.0693 | 0.00643
10 | MPGRAEAGEAEEEAGAGSGSEAEEDALWERIEGVRHRLARALNPAKLTPYLRQCRVIDEQDEEEVLSTYRFPCRVNRTGRLMDILRCRGKRGYEAFLEALEFYYPEHFTLLTGQEPAQRCSMILDEEGPEGLTQFLMTEVRRLREARKSQLQREQQLQARGRVLEEERAGLEQRLRDQQQAQERCQRLREDWEAGSLELLRLKDENYMIAMRLAQLSEEKNSAVLRSRDLQLAVDQLKLKVSRLEEECALLRRARGPPPGAEEKEKEKEKEKEPDNVDLVSELRAENQRLTASLRELQEGLQQEASRPGAPGSERILLDILEHDWREAQDSRQELCQKLHAVQGELQWAEELRDQYLQEMEDLRLKHRTLQKDCDLYKHRMATVLAQLEEIEKERDQAIQSRDRIQLQYSQSLIEKDQYRKQVRGLEAERDELLTTLTSLEGTKALLEVQLQRAQGGTCLKACASSHSLCSNLSSTWSLSEFPSPLGGPEATGEAAVMGGPEPHNSEEATDSEKEINRLSILPFPPSAGSILRRQREEDPAPPKRSFSSMSDITGSVTLKPWSPGLSSSSSSDSVWPLGKPEGLLARGCGLDFLNRSLAIRVSGRSPPGGPEPQDKGPDGLSFYGDRWSGAVVRRVLSGPGSARMEPREQRVEAAGLEGACLEAEAQQRTLLWNQGSTLPSLMDSKACQSFHEALEAWAKGPGAEPFYIRANLTLPERADPHALCVKAQEILRLVDSAYKRRQEWFCTRVDPLTLRDLDRGTVPNYQRAQQLLEVQEKCLPSSRHRGPRSNLKKRALDQLRLVRPKPVGAPAGDSPDQLLLEPCAEPERSLRPYSLVRPLLVSALRPVVLLPECLAPRLIRNLLDLPSSRLDFQVCPAESLSGEELCPSSAPGAPKAQPATPGLGSRIRAIQESVGKKHCLLELGARGVRELVQNEIYPIVIHVEVTEKNVREVRGLLGRPGWRDSELLRQCRGSEQVLWGLPCSWVQVPAHEWGHAEELAKVVRGRILQEQARLVWVECGSSRGCPSSSEA [CARD10] | -0.0585 | 0.0575
11 | MASGDFCSPGEGMEILQQVCSKQLPPCNLSKEDLLQNPYFSKLLLNLSQHVDESGLSLTLAKEQAQAWKEVRLHKTTWLRSEILHRVIQELLVDYYVKIQDTNVTSEDKKFHETLEQRLLVTELMRLLGPSQEREIPPLLGLEKADLLELMPLSEDFVWMRARLQQEVEEQLKKKCFTLLCYYDPNSDADSETVKAAKVWKLAEVLVGEQQQCQDAKSQQKEQMLLLEKKSAAYSQVLLRCLTLLQRLLQEHRLKTQSELDRINAQYLEVKCGAMILKLRMEELKILSDTYTVEKVEVHRLIRDRLEGAIHLQEQDMENSRQVLNSYEVLGEEFDRLVKEYTVLKQATENKRWALQEFSKVYR [HAUS4] | 0.377 | -0.0485
